The values that follow come from article PMC4241043.

Test [1] has as its target protein FAF (F. magna adhesion factor), recombinant, amino acids 28-616 (F. magna). Description: SPR.
Test [2] has as its target FAF-expressing strains (ALB8, L3410, 1462 and 2133). Briefly: radioligand binding.
The target in test [3] is protein FAF on the surface of F. magna strain ALB8 (F. magna (endogenous in strain ALB8)). Briefly: radioligand binding.

galectin-7, sequence (P47929 whole entry): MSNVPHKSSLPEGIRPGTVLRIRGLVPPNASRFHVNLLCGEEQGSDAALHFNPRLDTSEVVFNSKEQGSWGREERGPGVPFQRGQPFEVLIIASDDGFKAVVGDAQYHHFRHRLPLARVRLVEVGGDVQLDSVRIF

As to “galectin-7 (from UniProt P47929 1-136) (natural protein)”, the Kd in test [1] was 0.53 nM. In test [2], this substance registered a percent of added radiolabelled galectin-7 bound of 20 to 30%.

As for “rF16, N-terminal half of fibrillin-1 (domain or fragment)”, in test [3], the percent binding of 125I-labelled fragment is 24%.

Turning to “rFBN2-2, N-terminal half of fibrillin-2 (domain or fragment)”, the percent binding of 125I-labelled fragment in test [3] amounted to 17%.
